In PMC5114558, “Reader domain specificity and lysine demethylase-4 family function” (Nature Communications, 2016):

Key:
Test in all cases: fluorescence polarisation; fluorescein-labelled histone peptide 3 nM, KDM4 DTD titrated 0.1-100 μM; 30 mM HEPES, 150 mM NaCl pH 7.4, 0.01% Triton X-100
[1] = target: H3 (17-32) K23me3 peptide, fluorescein-labelled (UniProt P68431)
[2] = target: H3K23me1 peptide (monomethylated H3K23), fluorescein-labelled
[3] = target: H3K23me2 peptide (dimethylated H3K23), fluorescein-labelled
[4] = target: H3K23me3R26A peptide, fluorescein-labelled
[5] = target: H3K23me3R26me2a peptide, fluorescein-labelled
[6] = target: H3T22phK23me3 peptide, fluorescein-labelled

| Substance | Kd [1] [µM] | Kd [2] [µM] | Kd [3] [µM] | Kd [4] [µM] | Kd [5] [µM] | Kd [6] [µM] |
| --- | --- | --- | --- | --- | --- | --- |
| KDM4A double tudor domain (KDM4A-DTD), HaloTag-tagged, wild type (from UniProt O75164 895-1011) (domain or fragment) | 2.2 | 98.5 | 9.06 | 32.3 | 8.7 | 83.7 |
| KDM4B double tudor domain (KDM4B-DTD), HaloTag-tagged, wild type (from UniProt O94953 917-1031) (domain or fragment) | 10.3 |  |  |  |  |  |
